Assay results taken from the Immune Epitope Database (IEDB).
One block for each sequence: values may come before it.

What was measured:
[1] = molecular target: HLA-A*02:07; assay: IEDB peptide-MHC binding, purified MHC/competitive/radioactivity; filed as Kd, often an IC50 or EC50 that approximates it; ≥ and ≤ were set here for values at or beyond the usual limits of such assays; conditions: source organism: Homo sapiens
[2] = molecular target: HLA-B*57:01; assay: as above; conditions: source organism: Homo sapiens
[3] = molecular target: HLA-B*58:01; assay: as above; conditions: source organism: Homo sapiens
[4] = molecular target: HLA-A*29:02; assay: as above; conditions: source organism: Homo sapiens
[5] = molecular target: HLA-A*02:01; assay: as above; conditions: source organism: Homo sapiens
[6] = molecular target: HLA-B*15:02; assay: IEDB peptide-MHC binding, purified MHC/competitive/fluorescence; filed as Kd, often an IC50 or EC50 that approximates it; ≥ and ≤ were set here for values at or beyond the usual limits of such assays; conditions: source organism: Homo sapiens
[7] = molecular target: HLA-B*46:01; assay: as above; conditions: source organism: Homo sapiens
[8] = molecular target: HLA-A*25:01; assay: IEDB peptide-MHC binding, purified MHC/competitive/fluorescence; ≥ and ≤ were set here for values at or beyond the usual limits of such assays; conditions: source organism: Mus musculus
[9] = molecular target: HLA-B*44:03; assay: as above; conditions: source organism: Mus musculus
[10] = molecular target: HLA-B*40:02; assay: as above; conditions: source organism: Mus musculus
[11] = molecular target: HLA-A*68:02; assay: as above; conditions: source organism: Mus musculus
[12] = molecular target: HLA-B*07:02; assay: as above; conditions: source organism: Mus musculus
[13] = molecular target: HLA-B*53:01; assay: as above; conditions: source organism: Mus musculus
[14] = molecular target: HLA-B*08:01; assay: as above; conditions: source organism: Mus musculus
[15] = molecular target: HLA-A*31:01; assay: as above; conditions: source organism: Mus musculus
[16] = molecular target: HLA-B*51:01; assay: as above; conditions: source organism: Mus musculus
[17] = molecular target: HLA-B*58:01; assay: as above; conditions: source organism: Mus musculus
[18] = molecular target: HLA-A*29:02; assay: as above; conditions: source organism: Mus musculus
[19] = molecular target: HLA-B*18:01; assay: as above; conditions: source organism: Mus musculus
[20] = molecular target: HLA-B*35:01; assay: as above; conditions: source organism: Mus musculus
[21] = molecular target: HLA-B*14:02; assay: as above; conditions: source organism: Mus musculus
[22] = molecular target: HLA-B*37:01; assay: as above; conditions: source organism: Mus musculus
[23] = molecular target: HLA-A*02:01; assay: as above; conditions: source organism: Mus musculus
[24] = molecular target: HLA-A*01:01; assay: as above; conditions: source organism: Mus musculus
[25] = molecular target: HLA-A*03:01; assay: as above; conditions: source organism: Mus musculus
[26] = molecular target: HLA-A*11:01; assay: as above; conditions: source organism: Mus musculus
[27] = molecular target: HLA-A*24:02; assay: as above; conditions: source organism: Mus musculus
[28] = molecular target: HLA-A*02:03; assay: IEDB peptide-MHC binding, purified MHC/competitive/fluorescence; filed as Kd, often an IC50 or EC50 that approximates it; ≥ and ≤ were set here for values at or beyond the usual limits of such assays
[29] = molecular target: HLA-A*02:12; assay: IEDB peptide-MHC binding, purified MHC/direct/fluorescence; filed as Kd, often an IC50 or EC50 that approximates it; ≥ and ≤ were set here for values at or beyond the usual limits of such assays; conditions: source organism: Geobacillus sp. WCH70
[30] = molecular target: HLA-A*02:06; assay: as above; conditions: source organism: Geobacillus sp. WCH70
[31] = molecular target: HLA-A*02:01; assay: as above
[32] = molecular target: HLA-A*30:01; assay: IEDB peptide-MHC binding, purified MHC/competitive/fluorescence; filed as Kd, often an IC50 or EC50 that approximates it; ≥ and ≤ were set here for values at or beyond the usual limits of such assays; conditions: source organism: Vaccinia virus Copenhagen
[33] = molecular target: HLA-B*07:02; assay: as above; conditions: source organism: Vaccinia virus Copenhagen
[34] = molecular target: HLA-B*08:01; assay: as above; conditions: source organism: Vaccinia virus Copenhagen
[35] = molecular target: HLA-A*11:01; assay: as above; conditions: source organism: Vaccinia virus Copenhagen
[36] = molecular target: HLA-A*26:03; assay: IEDB peptide-MHC binding, purified MHC/direct/fluorescence; filed as Kd, often an IC50 or EC50 that approximates it; ≥ and ≤ were set here for values at or beyond the usual limits of such assays; conditions: source organism: Variola virus
[37] = molecular target: HLA-A*68:02; assay: as above; conditions: source organism: Camelpox virus M-96
[38] = molecular target: HLA-B*27:05; assay: as above; conditions: source organism: Camelpox virus M-96
[39] = molecular target: HLA-B*15:01; assay: as above; conditions: source organism: Camelpox virus M-96
[40] = molecular target: HLA-B*15:17; assay: as above; conditions: source organism: Camelpox virus M-96
[41] = molecular target: HLA-A*69:01; assay: as above; conditions: source organism: Camelpox virus M-96
[42] = molecular target: HLA-B*08:03; assay: as above; conditions: source organism: Variola virus
[43] = molecular target: HLA-B*57:01; assay: as above; conditions: source organism: Camelpox virus M-96
[44] = molecular target: HLA-B*58:01; assay: as above; conditions: source organism: Camelpox virus M-96
[45] = molecular target: HLA-B*18:01; assay: as above; conditions: source organism: Camelpox virus M-96
[46] = molecular target: HLA-B*48:01; assay: as above; conditions: source organism: Camelpox virus M-96
[47] = molecular target: HLA-A*01:01; assay: as above; conditions: source organism: Camelpox virus M-96

- Kd [1]: ≥ 77.7 µM
- Kd [2]: 0.106 µM
- Kd [3]: 0.084 µM
- Kd [4]: 0.0441 µM
- Kd [5]: ≥ 78.1 µM
- Kd [6]: 0.00255 µM
- Kd [7]: 0.0131 µM
Sequence: FAFVTDNTY

- IC50 [8]: ≥ 20 µM
- IC50 [9]: ≥ 20 µM
- IC50 [10]: ≥ 20 µM
- IC50 [11]: ≥ 20 µM
- IC50 [12]: ≥ 20 µM
- IC50 [13]: ≥ 20 µM
- IC50 [14]: ≥ 20 µM
- IC50 [15]: ≥ 20 µM
- IC50 [16]: ≥ 20 µM
- IC50 [17]: ≥ 20 µM
- IC50 [18]: 0.0381 µM
- IC50 [19]: ≥ 20 µM
- IC50 [20]: 0.0138 µM
- IC50 [21]: ≥ 20 µM
- IC50 [22]: ≥ 20 µM
- IC50 [23]: ≥ 20 µM
- IC50 [24]: ≥ 20 µM
- IC50 [25]: ≥ 20 µM
- IC50 [26]: ≥ 20 µM
- IC50 [27]: ≥ 20 µM
Sequence: VALFSSCPVAY

Sequence: GLPESTPSL
- Kd ([28]; source organism: Bacillus anthracis str. A0488): 0.0214 µM
- Kd [29]: 0.12 µM
- Kd [30]: 0.014 µM
- Kd ([31]; source organism: Bacillus cereus): 0.0121 µM

Sequence: NRLKPRDFK
- Kd [32]: ≥ 20 µM
- Kd [33]: 3 µM
- Kd ([28]; source organism: Vaccinia virus Copenhagen): ≥ 20 µM
- Kd [34]: 3 µM
- Kd [35]: ≥ 20 µM
- Kd [36]: ≥ 20 µM
- Kd [37]: ≥ 20 µM
- Kd [38]: 1.79 µM
- Kd [39]: ≥ 20 µM
- Kd [40]: ≥ 20 µM
- Kd [41]: ≥ 20 µM
- Kd [42]: ≥ 20 µM
- Kd [43]: ≥ 20 µM
- Kd [44]: ≥ 20 µM
- Kd [45]: ≥ 20 µM
- Kd [46]: ≥ 20 µM
- Kd ([31]; source organism: Camelpox virus M-96): ≥ 20 µM
- Kd [47]: ≥ 20 µM
